From patent publication US6156546 (Washington State University Research Foundation, dated 2000)

B1: CadF protein of Campylobacter coli M275 (other)
chain: ADNNVKFEITPTLNHNYFEGNLDMDNRYAPGIRLGYHFDDFWLDQLELGLEHYSDVKYTNSTLTTDITRTYLSAIKGIDLGEKFYFYGLAGGGYEDFSKGAFDNKSGGFGHYGAGLKFRLSDSLALRLETRDQISFHDADHSWVSTLGISFGFGAKREKVVAEQVKEVAIEPRVAVPTQSQCPAEPREGAMLDENGCEKTISFEGHFGFDKVDINPAFEEKIKEIAQLLDENARYDTILEGHTDNIGSRAYNQKLSERRAESVAKELEKFGVDKDRIQTVGYGQDKPRSRNETKEGRADNRRVDAKFILR

Key:
[1] = biological target: Human plasma fibronectin (human) (UniProt P02751); assay: soluble 125I-Fn bound to untreated whole C. jejuni, gamma counting
Human plasma fibronectin = Human plasma fibronectin (human, UniProt P02751-8, 125I-labelled (Iodogen method) or biotinylated (sulfo-NHS-biotin) in the ligand blots and the soluble binding assay; unlabelled when immobilised on coverslips); assay: ligand blot with 125I-labeled Fn

Molecule	ng Fn bound [1]	binding result (Human plasma fibronectin)
C. jejuni whole bacteria (isolate not stated) in the soluble 125I-Fn assay (cells without a defined receptor)	380 ng	
B1		binds
